The target of this assay is Rabbit skeletal muscle α-actin, filamentous (F-actin) (rabbit, UniProt P68135 1-377). The conditions noted are these: both partners purified.

B1: E16R Lifeact–mCherry (peptide)
chain: MGVADLIKKFESISKRE
notes: One of the plasmids 2479, 2556, 2557, 2558; also called E16R Lifeact variant; source: E. coli BL21-CodonPlus(DE3)-RIPL, purified (Protino Ni-IDA resin, dialysis)
As to B1, binding was put at a Kd of 6 ± 0.7 µM.

B2: E17K Lifeact–mCherry (peptide)
chain: MGVADLIKKFESISKEK
notes: Lifeact (17 N-terminal residues of yeast ABP140) with E17K, fused to mCherry; One of the plasmids 2479, 2556, 2557, 2558; also called E17K variant of Lifeact; source: E. coli BL21-CodonPlus(DE3)-RIPL, purified (Protino Ni-IDA resin, dialysis)
Take B2: the Kd (usually the free concentration of one partner at which half of the binding sites on the other are occupied at equilibrium, for simple one-to-one binding) amounted to 8.1 ± 0.6 µM.

These data come from paper PMC7717565 (PLoS Biology, 2020).
